Data from article doi:10.1101/2022.11.08.515461 (bioRxiv, 2022).

B1: Pac1-SNAP (natural protein)
chain: MTNWQQQLPLTDTQKNELDKSVLRYLNWNYKQTVRHEHAQDYESVRHAIVTLSGFLLQESVDRQEFISNNDTSNESMVDIDELLLPKKWNSIVRLQKKIIELEQNTETLVSQIKDLNTQVSELAQFKPTTSNGTSAHNVLKWIPRNLPSCLINVESSVTSVKLHPNLPIVFVATDHGKLYAFDLFNYTIPLASLQSHTKAITSMDVLFTNYTNSSKKNYLVIVTASKDLQIHVFKWVSEECKFQQIRSLLGHEHIVSAVKIWQKNNDVHIASCSRDQTVKIWDFHNGWSLKTFQPHSQWVRSIDVLGDYIISGSHDTTLRLTHWPSGNGLSVGTGHEFPIEKVKFIHFIEDSPEIRFRTPSTDRYKNWGMQYCVSASRDRTIKIWEIPLPTLMAHRAPIPNPTDSNFRCVLTLKGHLSWVRDISIRGQYLFSCADDKSVRCWDLNTGQCLHVWEKLHTGFVNCLDLDVDFDSNVTPRQMMVTGGLDCKSNVFMR
modifications: JF646-SNAP-tag ligand on the SNAP tag (fluorescent labelling)
B2: human LIS1-SNAP (from pFastBac:8His-ZZ-TEV-LIS1-SNAPf) (natural protein)
chain: MVLSQRQRDELNRAIADYLRSNGYEEAYSVFKKEAELDVNEELDKKYAGLLEKKWTSVIRLQKKVMELESKLNEAKEEFTSGGPLGQKRDPKEWIPRPPEKYALSGHRSPVTRVIFHPVFSVMVSASEDATIKVWDYETGDFERTLKGHTDSVQDISFDHSGKLLASCSADMTIKLWDFQGFECIRTMHGHDHNVSSVAIMPNGDHIVSASRDKTIKMWEVQTGYCVKTFTGHREWVRMVRPNQDGTLIASCSNDQTVRVWVVATKECKAELREHEHVVECISWAPESSYSSISEATGSETKKSGKPGPFLLSGSRDKTIKMWDVSTGMCLMTLVGHDNWVRGVLFHSGGKFILSCADDKTLRVWDYKNKRCMKTLNAHEHFVTSLDFHKTAPYVVTGSVDQTVKVWECR

What was measured:
mass photometry = target: the molecule itself; assay: mass photometry
[1] = target: yeast dynein_(MOTOR)^MT-U (microtubule-unbound mutant of the motor domain) (budding yeast | T. thermophilus) (UniProt P34945); assay: mass photometry
yeast dynein_(MOTOR)^MT-U (microtubule-unbound mutant of the motor domain) (budding yeast | T. thermophilus), sequence (P34945 whole entry, change not shown, the tested form may be a part): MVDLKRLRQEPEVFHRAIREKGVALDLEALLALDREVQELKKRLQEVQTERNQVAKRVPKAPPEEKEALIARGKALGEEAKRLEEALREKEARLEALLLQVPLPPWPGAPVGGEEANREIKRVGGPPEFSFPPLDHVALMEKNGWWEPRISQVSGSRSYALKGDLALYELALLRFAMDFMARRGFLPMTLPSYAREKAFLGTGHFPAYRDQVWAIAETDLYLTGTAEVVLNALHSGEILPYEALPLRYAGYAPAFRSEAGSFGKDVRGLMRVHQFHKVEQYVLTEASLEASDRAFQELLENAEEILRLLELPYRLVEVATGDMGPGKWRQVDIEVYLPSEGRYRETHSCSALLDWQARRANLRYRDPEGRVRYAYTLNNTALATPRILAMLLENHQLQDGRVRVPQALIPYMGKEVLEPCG

[2] = target: yeast dynein_(MOTOR) (wild-type; ZZ-TEV-dynein331-HALO) (budding yeast) (UniProt P36022); assay: mass photometry
[3] = target: human dynein_(MOTOR)^MT-U (microtubule-unbound mutant of the motor domain) (human | T. thermophilus); assay: cryo-EM structure
[4] = target: human dynein_(MOTOR) (wild-type motor domain, residues 1458-4646) (human, UniProt Q14204 1458-4646); assay: mass photometry
human dynein_(MOTOR) (wild-type motor domain, residues 1458-4646), sequence (Q14204 1458-4646): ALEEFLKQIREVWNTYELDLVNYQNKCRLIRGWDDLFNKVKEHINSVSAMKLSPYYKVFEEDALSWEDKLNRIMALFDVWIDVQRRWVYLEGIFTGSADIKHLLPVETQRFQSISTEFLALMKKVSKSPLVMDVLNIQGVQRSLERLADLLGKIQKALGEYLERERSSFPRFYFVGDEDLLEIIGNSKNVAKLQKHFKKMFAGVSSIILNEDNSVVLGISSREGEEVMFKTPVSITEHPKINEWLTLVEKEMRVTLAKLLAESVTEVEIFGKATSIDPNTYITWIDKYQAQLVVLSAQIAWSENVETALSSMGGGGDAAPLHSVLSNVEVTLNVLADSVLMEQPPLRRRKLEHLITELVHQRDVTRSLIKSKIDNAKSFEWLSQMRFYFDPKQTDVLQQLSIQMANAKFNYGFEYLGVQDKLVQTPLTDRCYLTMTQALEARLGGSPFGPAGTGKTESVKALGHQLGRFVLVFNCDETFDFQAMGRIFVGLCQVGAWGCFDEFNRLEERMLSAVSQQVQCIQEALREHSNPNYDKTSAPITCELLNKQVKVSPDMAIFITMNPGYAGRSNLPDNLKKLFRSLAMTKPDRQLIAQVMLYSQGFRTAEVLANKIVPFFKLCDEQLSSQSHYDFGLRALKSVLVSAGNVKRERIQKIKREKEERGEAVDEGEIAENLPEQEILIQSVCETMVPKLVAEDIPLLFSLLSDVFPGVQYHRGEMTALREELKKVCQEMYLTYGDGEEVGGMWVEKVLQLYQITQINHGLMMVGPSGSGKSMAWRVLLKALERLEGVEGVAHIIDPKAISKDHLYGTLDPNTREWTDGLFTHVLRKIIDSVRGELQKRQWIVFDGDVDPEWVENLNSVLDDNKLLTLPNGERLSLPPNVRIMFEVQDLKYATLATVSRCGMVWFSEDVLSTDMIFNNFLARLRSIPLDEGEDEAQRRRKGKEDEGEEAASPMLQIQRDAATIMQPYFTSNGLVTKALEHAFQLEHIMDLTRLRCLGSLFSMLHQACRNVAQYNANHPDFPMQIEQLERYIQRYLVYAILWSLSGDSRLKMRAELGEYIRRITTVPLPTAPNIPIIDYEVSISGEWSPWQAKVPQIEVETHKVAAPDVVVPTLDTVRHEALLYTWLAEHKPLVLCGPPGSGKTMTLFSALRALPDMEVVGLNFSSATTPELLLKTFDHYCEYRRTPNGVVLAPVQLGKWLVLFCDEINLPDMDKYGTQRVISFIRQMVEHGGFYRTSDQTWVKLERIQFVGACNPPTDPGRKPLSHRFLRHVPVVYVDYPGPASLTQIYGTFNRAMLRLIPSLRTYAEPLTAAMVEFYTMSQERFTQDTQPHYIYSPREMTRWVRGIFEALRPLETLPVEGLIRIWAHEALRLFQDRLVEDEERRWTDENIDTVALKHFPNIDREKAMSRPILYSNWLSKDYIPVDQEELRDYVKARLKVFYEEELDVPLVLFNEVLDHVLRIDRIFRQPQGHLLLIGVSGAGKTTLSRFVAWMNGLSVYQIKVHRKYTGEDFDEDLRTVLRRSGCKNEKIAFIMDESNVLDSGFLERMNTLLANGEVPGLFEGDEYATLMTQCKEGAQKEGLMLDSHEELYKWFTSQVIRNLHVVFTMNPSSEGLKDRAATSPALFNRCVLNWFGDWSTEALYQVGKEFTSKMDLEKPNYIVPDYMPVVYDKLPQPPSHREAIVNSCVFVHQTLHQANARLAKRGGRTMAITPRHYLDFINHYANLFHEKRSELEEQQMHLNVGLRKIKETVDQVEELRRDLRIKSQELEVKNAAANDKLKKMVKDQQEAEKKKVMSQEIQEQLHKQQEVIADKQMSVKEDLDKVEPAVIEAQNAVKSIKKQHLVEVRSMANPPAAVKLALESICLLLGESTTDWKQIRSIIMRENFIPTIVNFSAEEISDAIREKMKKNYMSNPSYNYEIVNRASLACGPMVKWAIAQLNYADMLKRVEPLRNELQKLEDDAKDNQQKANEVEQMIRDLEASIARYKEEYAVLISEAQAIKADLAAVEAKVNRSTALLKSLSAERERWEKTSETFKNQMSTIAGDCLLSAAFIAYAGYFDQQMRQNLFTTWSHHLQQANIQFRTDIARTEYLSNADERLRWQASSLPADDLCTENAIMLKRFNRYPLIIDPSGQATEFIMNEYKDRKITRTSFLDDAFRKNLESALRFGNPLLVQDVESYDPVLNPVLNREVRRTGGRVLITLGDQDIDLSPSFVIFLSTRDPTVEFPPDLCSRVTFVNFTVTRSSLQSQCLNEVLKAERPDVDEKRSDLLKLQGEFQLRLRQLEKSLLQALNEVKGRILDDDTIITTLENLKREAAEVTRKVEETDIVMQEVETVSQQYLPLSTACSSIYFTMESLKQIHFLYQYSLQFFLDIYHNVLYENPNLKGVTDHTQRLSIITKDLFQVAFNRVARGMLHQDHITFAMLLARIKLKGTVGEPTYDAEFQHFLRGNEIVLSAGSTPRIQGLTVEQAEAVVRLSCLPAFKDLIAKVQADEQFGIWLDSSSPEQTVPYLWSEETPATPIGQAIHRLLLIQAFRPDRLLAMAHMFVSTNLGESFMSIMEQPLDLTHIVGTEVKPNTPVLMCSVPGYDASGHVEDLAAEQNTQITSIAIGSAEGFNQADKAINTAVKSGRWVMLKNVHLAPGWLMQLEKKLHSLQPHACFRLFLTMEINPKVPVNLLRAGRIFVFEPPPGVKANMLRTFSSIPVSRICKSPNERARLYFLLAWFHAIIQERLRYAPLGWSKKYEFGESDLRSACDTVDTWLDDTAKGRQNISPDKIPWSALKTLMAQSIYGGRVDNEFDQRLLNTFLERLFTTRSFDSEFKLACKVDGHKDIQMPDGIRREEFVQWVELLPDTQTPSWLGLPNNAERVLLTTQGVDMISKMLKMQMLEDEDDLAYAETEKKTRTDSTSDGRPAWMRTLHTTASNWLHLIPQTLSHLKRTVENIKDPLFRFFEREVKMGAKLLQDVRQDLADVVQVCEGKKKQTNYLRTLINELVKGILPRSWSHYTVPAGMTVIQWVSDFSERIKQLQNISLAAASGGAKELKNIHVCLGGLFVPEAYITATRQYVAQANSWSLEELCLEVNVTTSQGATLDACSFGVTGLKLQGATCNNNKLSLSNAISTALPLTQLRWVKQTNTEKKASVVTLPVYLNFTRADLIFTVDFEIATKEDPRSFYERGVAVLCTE

[5] = target: human dynein_(MOTOR)^MT-B (microtubule-bound mutant of the motor domain) (human | T. thermophilus); assay: mass photometry
[6] = target: human dynein_(MOTOR)^MT-U (microtubule-unbound mutant of the motor domain) (human | T. thermophilus); assay: mass photometry

Row | Binder | stoichiometry N (mass photometry) | stoichiometry N (Pac1 dimer per dynein (MOTOR) monomer) [1] | N of the second species (∼890 kDa) (dynein monomers per Pac1 dimer) [2] | percent of particles with 1 LIS1 bound (3D classification) [3] [%] | percent of particles with 2 LIS1 bound (3D classification) [3] [%] | percent of particles with “1.5” LIS1 bound (3D classification) [3] [%] | stoichiometry N ([3]; scale: LIS1 WD40 beta-propellers per dynein motor) | binding result [4] | stoichiometry N (LIS1 dimer per dynein (MOTOR) monomer) [5] | fold LIS1-binding affinity against dynein (MOTOR)^MT-B [6] [fold] | stoichiometry N (LIS1 dimer per dynein (MOTOR) monomer) [6]
1 | B1 | 2 | 1 | 2 | – | – | – | – | – | – | – | –
2 | B2 | – | – | – | 36.2 | 29.3 | 34.4 | 2 | binds | 1 | 2 | 1
